Laboratory results from patent publication US20210032312A1 (Janssen / Centocor, published 2021).

How the values were obtained:
human CD8A-Fc (in house) = biological target: T1, human CD8A-Fc (in house) (human, UniProt P01732 22-182, limits assumed); assay: SPR (ProteOn), captured hCD8A-Fc
T1 construct: captured by goat anti-human Fc on the ProteOn chip; also called hCD8A-Fc; recombinant human CD8 alpha; not shown: linker/tag and Fc of human IgG1

[1] = biological target: T2, human CD8 alpha (CD8A) on primary human CD8+ T cells (human, UniProt P01732 22-235); assay: flow cytometry, human CD8+ T cells
T2 construct: whole, on cells; also called hCD8A
T2 sequence (P01732 22-235): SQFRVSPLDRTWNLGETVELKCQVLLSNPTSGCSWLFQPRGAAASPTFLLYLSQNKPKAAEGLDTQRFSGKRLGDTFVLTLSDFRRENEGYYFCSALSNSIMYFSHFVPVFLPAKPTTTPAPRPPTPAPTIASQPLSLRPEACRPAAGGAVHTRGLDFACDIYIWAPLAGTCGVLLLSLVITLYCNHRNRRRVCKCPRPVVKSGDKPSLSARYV
Method: (§1) Binding of the 190 ELISA hits to human and cynomologous monkey primary CD8 T cells was assessed by flow cytometry. The FN3 domain molecules were diluted to 2 μM and 0.2 μM in PBS and incubated with human or cynomologous monkey CD8+ T cells in 96-well format. After 1 hour at 4 C, the cells were washed once with PBS and then resuspended with an anti-FN3 domain antibody (PAB25) solution. Following this incubation, the cells were washed twice with PBS and a PE conjugated secondary antibody and a viability dye were added. Finally, cells were washed and resuspended in PBS for flow cytometric analysis using a BD Canto Instrument. Cells were gating on live cells and median fluorescence intensity of the bound Centyrins (PE channel) was calculated using Cytobank software.

[2] = biological target: T3, cynomolgus monkey CD8 alpha on primary cynomolgus CD8+ T cells (cynomolgus monkey, UniProt P01732 23-235 (human entry)); assay: flow cytometry, cyno CD8+ T cells
T3 construct: also called Cyno CD8alpha; cyno CD8A
T3 sequence (P01732 other isoform, or with tags, fused parts or gaps limits assumed): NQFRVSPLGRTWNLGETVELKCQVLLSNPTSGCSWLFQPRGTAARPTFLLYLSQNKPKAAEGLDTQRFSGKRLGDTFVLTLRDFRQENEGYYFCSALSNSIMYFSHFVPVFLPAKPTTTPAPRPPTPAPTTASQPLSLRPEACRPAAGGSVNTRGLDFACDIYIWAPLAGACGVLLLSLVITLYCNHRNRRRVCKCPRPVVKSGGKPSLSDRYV
Method: as §1

T1 sequence (P01732 22-182 limits assumed): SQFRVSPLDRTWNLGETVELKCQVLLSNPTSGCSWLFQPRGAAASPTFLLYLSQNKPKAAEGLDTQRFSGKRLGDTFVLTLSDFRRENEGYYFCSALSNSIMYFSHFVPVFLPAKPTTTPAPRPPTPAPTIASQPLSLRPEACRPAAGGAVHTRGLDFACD

Row | Binder | koff (human CD8A-Fc (in house)) | Human T-cell Binding 0.2 uM (MFI) [1] | Human T-cell Binding 2 uM (MFI) [1] | Cyno T-cell Binding 0.2 uM (MFI) [2] | Cyno T-cell Binding 2 uM (MFI) [2]
1 | P283DR9P1364_D9 (designed binder, FN3 domain) LPAPKNLVVSRVTEDSARLSWTAPDAAFDSFGISYPEWPPLGEAIVLTVPGSERSYDLTGLKPGTEYWVIIFGVKGGERSWPLSAIFTT | 0.00043 s⁻¹ | 5240 MFI | 42300 MFI | 20000 MFI | 88300 MFI
2 | P283FR9P1366_C6 (designed binder, FN3 domain) LPAPKNLVVSRVTEDSARLSWTAPDAAFDSFSIAYPEWPVYGEAIVLTVPGSERSYDLTGLKPGTEYFVVIYGVKGGNYSDPLSAIFTT | 0.00143 s⁻¹ | 483 MFI | 4540 MFI | 1680 MFI | 26200 MFI
3 | P283FR9P1366_A9 (designed binder, FN3 domain) LPAPKNLVVSRVTEDSARLSWTAPDAAFDSFNIAYGEYPGPGEAIVLTVPGSERSYDLTGLKPGTEYWVPIWGVKGGELSEPLSAIFTT | 0.00394 s⁻¹ | 252 MFI | 1720 MFI | 580 MFI | 8810 MFI
4 | P283FR9P1366_C4 (designed binder, FN3 domain) LPAPKNLVVSRVTEDSARLSWTAPDAAFDSFNIAYPEWPVRGEAIVLTVPGSERSYDLTGLKPGTEYWVIIIGVKGGEDSWPLSAIFTT | 0.000536 s⁻¹ | 3750 MFI | 33800 MFI | 10200 MFI | 63400 MFI
5 | P283DR9P1364_G9 (designed binder, FN3 domain) LPAPKNLVVSRVTEDSARLSWTAPDAAFDSFGIWYPEWPVGGEAIVLTVPGSERSYDLTGLKPGTEYWVNISGVKGGEYSFPLSAIFTT | 0.00779 s⁻¹ | 401 MFI | 9890 MFI | 2800 MFI | 47100 MFI
6 | P283DR9P1364_H6 (designed binder, FN3 domain) LPAPKNLVVSRVTEDSARLSWTAPDAAFDSFIIAYPETPVRGEAIVLTVPGSERSYDLTGLKPGTEYFVIIIGVKGGQESFPLSAIFTT | 0.0023 s⁻¹ | 268 MFI | 2620 MFI | 418 MFI | 6000 MFI
7 | P283DR9P1364_D11 (designed binder, FN3 domain) LPAPKNLVVSRVTEDSARLSWTAPDAAFDSFDIAYPEWPPKGEAIVLTVPGSERSYDLTGLKPGTEYFVVIYGVKGGIHSAPLSAIFTT | 0.000514 s⁻¹ | 4220 MFI | 32300 MFI | 16200 MFI | 70400 MFI
8 | P283DR9P1364_E7 (designed binder, FN3 domain) LPAPKNLVVSRVTEDSARLSWTAPDAAFDSFNIAYPEWPVRGEAIVLTVPGSERSYDLTGLKPGTEYWVIIYGVKGGDRSNPLSAIFTT | 0.00243 s⁻¹ | 442 MFI | 5390 MFI | 2240 MFI | 28700 MFI
9 | P283DR9P1364_F2 (designed binder, FN3 domain) LPAPKNLVVSRVTEDSARLSWTAPDAAFDSFWIAYPEWPVPGEAIVLTVPGSERSYDLTGLKPGTEYFVIIQGVKGGFGSFPLSAIFTT | 0.000161 s⁻¹ | 6250 MFI | 39200 MFI | 16900 MFI | 91500 MFI
10 | P283FR9P1366_D6 (designed binder, FN3 domain) LPAPKNLVVSRVTEDSARLSWTAPDAAFDSFNIFYPELVFPGEAIVLTVPGSERSYDLTGLKPGTEYWVNISGVKGGEHSWPLSAIFTT | 0.000509 s⁻¹ | 4550 MFI | 32900 MFI | 10400 MFI | 79600 MFI
11 | P283FR9P1366_A1 (designed binder, FN3 domain) LPAPKNLVVSRVTEDSARLSWTAPDAAFDSFWITYPEWPVPGEAIVLTVPGSERSYDLTGLKPGTEYAVFIWGVKGGDASEPLSAIFTT | 0.00226 s⁻¹ | 516 MFI | 8780 MFI | 1650 MFI | 39400 MFI
12 | P283FR9P1366_D7 (designed binder, FN3 domain) LPAPKNLVVSRVTEDSARLSWTAPDAAFDSFSIAYPELPVKGEAIVLTVPGSERSYDLTGLKPGTEYFVVIWGVKGGTYSGPLSAIFTT | 0.000354 s⁻¹ | 566 MFI | 7520 MFI | 2580 MFI | 41400 MFI
13 | P283FR9P1366_C2 (designed binder, FN3 domain) LPAPKNLVVSRVTEDSARLSWTAPDAAFDSFKISYPEWPPEGEAIVLTVPGSERSYDLTGLKPGTEYAVFIWCVKGGEHSWPLSAIFTT | 0.000491 s⁻¹ | 4320 MFI | 41000 MFI | 19300 MFI | 89200 MFI
14 | P283DR9P1364_H1 (designed binder, FN3 domain) LPAPKNLVVSRVTEDSARLSWTAPDAAFDSFQISYPEWPVHGEAIVLTVPGSERSYDLTGLKPGTEYWVIIWGVKGGRQSWPLSAIFTT | 0.000613 s⁻¹ | 3030 MFI | 29200 MFI | 10600 MFI | 54000 MFI
15 | P283DR9P1364_H11 (designed binder, FN3 domain) LPAPKNLVVSRVTEDSARLSWTAPDAAFDSFDIAYPELPLGGEAIVLTVPGSERSYDLTGLKPGTEYFVIIWGVKGGDRSEPLSAIFTT | 0.000964 s⁻¹ | 834 MFI | 11500 MFI | 9460 MFI | 60600 MFI
16 | P283FR9P1366_A5 (designed binder, FN3 domain) LPAPKNLVVSRVTEDSARLSWTAPDAAFDSFWIAYPEWPTRGEAIVLTVPGSERSYDLTGLKPGTEYFVVIYGVKGGSPSPPLSAIFTT | 0.000585 s⁻¹ | 3600 MFI | 27600 MFI | 10900 MFI | 67800 MFI
17 | P283FR9P1366_C3 (designed binder, FN3 domain) LPAPKNLVVSRVTEDSARLSWTAPDAAFDSFKIAYPEWPDGGEAIVLTVPGSERSYDLTGLKPGTEYFVIIYGVKGGILSPPLSAIFTT | 0.00207 s⁻¹ | 407 MFI | 1820 MFI | 1040 MFI | 4630 MFI
18 | P283DR9P1364_E9 (designed binder, FN3 domain) LPAPKNLVVSRVTEDSARLSWTAPDAAFDSFDIAYPEWPTKGEAIVLTVPGSERSYDLTGLKPGTEYFVVINGVKGGWRSFPLSAIFTT | 0.0019 s⁻¹ | 548 MFI | 4300 MFI | 2100 MFI | 19700 MFI
19 | P283DR9P1364_E5 (designed binder, FN3 domain) LPAPKNLVVSRVTEDSARLSWTAPDAAFDSFWISYPEWPVPGEAIVLTVPGSERSYDLTGLKPGTEYWVIIQGVKGGKLSWPLSAIFTT | 0.000825 s⁻¹ | 1270 MFI | 17600 MFI | 5090 MFI | 55700 MFI
20 | P283FR9P1366_D8 (designed binder, FN3 domain) LPAPKNLVVSRVTEDSARLSWTAPDAAFDSFEIAYPEIPIAGEAIVLTVPGSERSYDLTGLKPGTEYFVIIYGVKGGDWSDPLSAIFTT | 0.00134 s⁻¹ | 413 MFI | 3390 MFI | 2300 MFI | 28200 MFI
21 | P283DR9P1364_G10 (designed binder, FN3 domain) LPAPKNLVVSRVTEDSARLSWTAPDAAFDSFSIAYPEWPGSGEAIVLTVPGSERSYDLTGLKPGTEYFVVIFGVKGGSQSWPLSAIFTT | 0.00253 s⁻¹ | 409 MFI | 6290 MFI | 769 MFI | 10900 MFI
22 | P283FR9P1366_B7 (designed binder, FN3 domain) LPAPKNLVVSRVTEDSARLSWTAPDAAFDSFWITYPEWPVNGEAIVLTVPGSERSYDLTGLKPGTEYWVVIWGVKGGVESPPLSAIFTT | 0.00115 s⁻¹ | 899 MFI | 11400 MFI | 4670 MFI | 51200 MFI
23 | P283DR9P1364_E3 (designed binder, FN3 domain) LPAPKNLVVSRVTEDSARLSWTAPDAAFDSFGIAYPELPIGGEAIVLTVPGSERSYDLTGLKPGTEYFVIIRGVKGGTLSPPLSAIFTT | 0.00253 s⁻¹ | 317 MFI | 1280 MFI | 887 MFI | 9130 MFI
